The target in experiment [1] is EGFR on EGFR positive non-small cell lung cancer cells NCI-H1650 (UniProt P00533 25-1210). Put plainly: cell-based or functional assay.
For experiment [2], the target named is human EGFR (huEGFR) over-expressed on mcl-1-/- mouse embryonic fibroblasts (human, UniProt P00533 25-1210). Put plainly: cell-based or functional assay.

B1: AbB-WD (antibody, human IgG1, kappa, V domains shown)
VH: EVQLQESGPGLVKPSQTLSLTCTVSGYSISNDFAWNWIRQPPGKGLEWMGYISYKGNTRYQPSLKSRITISRDTSKNQFFLKLNSVTAADTATYYCVTASRGFPWWGQGTLVTVSS
VL: DIQMTQSPSSMSVSVGDRVTITCHSSQDINSNIGWLQQKPGKSFKGLIYHGTNLDDGVPSRFSGSGSGTDYTLTISSLQPEDFATYYCVQYAQFPWTFGGGTKLEIKR
modifications: synthon WD on reduced interchain cysteines; average DAR 1.6 per ADC
Consider B1, for which, in experiment [1], the “H1650 CTG-3D EC50” value is 2.69 µg/mL and the “H1650 GFP Flourescence EC50” value was 1.01 µg/mL. Besides, in experiment [2], the “huEGFR+ mcl-1-/- MEF EC50” value was found to be 0.023 µM.

B2: AbG-LB (antibody, human IgG1, kappa, V domains shown)
VH: EVQLQESGPGLVKPSQTLSLTCTVSGYSISNDFAWNWIRQLPGKGLEWMGYISYKGNTRYQPSLKSRITISRDTSKNQFFLKLNSVTAADTATYYCVTASRGLPYWGQGTLVTVSS
VL: DIQMTQSPSSMSVSVGDRVTITCHSSQDITYNIGWLQQKPGKSFKGLIYHGANLDDGVPSRFSGSGSGTDYTLTISSLQPEDFATYYCVQYDEFPWTFGGGTKLEIKR
modifications: synthon LB on reduced interchain cysteines; average DAR 2.5 per ADC
As to B2, in experiment [1], the “H1650 CTG-3D EC50” value was 1.68 µg/mL and the “H1650 GFP Flourescence EC50” value worked out at 1.62 µg/mL. Also, the “huEGFR+ mcl-1-/- MEF EC50” value in experiment [2] is 0.024 µM.

B3: AbA-ZT (antibody, human IgG1, kappa, V domains shown)
VH: EVQLQESGPGLVKPSQTLSLTCTVSGYSISRDFAWNWIRQPPGKGLEWMGYISYNGNTRYQPSLKSRITISRDTSKNQFFLKLNSVTAADTATYYCVTASRGFPYWGQGTLVTVSS
VL: DIQMTQSPSSMSVSVGDRVTITCHSSQDINSNIGWLQQKPGKSFKGLIYHGTNLDDGVPSRFSGSGSGTDYTLTISSLQPEDFATYYCVQYAQFPWTFGGGTKLEIKR
modifications: synthon ZT on reduced interchain cysteines; average DAR 2 per ADC
In the case of B3, in experiment [1], the “H1650 CTG-3D EC50” value came to 0.35 µg/mL and the “H1650 GFP Flourescence EC50” value amounted to 1.13 µg/mL. Moreover, the “huEGFR+ mcl-1-/- MEF EC50” value in experiment [2] stood at 0.104 µM.

B4: AbK-WD (antibody, human IgG1, kappa, V domains shown)
VH: EVQLQESGPGLVKPSQTLSLTCTVSGYSISRDFAWNWIRQPPGKGLEWMGYISYNGNTRYQPSLKSRITISRDTSKNQFFLKLNSVTAADTATYYCVTASRGFPWWGQGTLVTVSS
VL: DIQMTQSPSSMSVSVGDRVTITCHSSQDITYNVGWLQQKPGKSFKGLIYHGSNLDHGVPSRFSGSGSGTDYTLTISSLQPEDFATYYCVQYDDFPWTFGGGTKLEIKR
modifications: synthon WD on reduced interchain cysteines; average DAR 1.7 per ADC
As to B4, in experiment [1], the “H1650 CTG-3D EC50” value is 4.36 µg/mL and the “H1650 GFP Flourescence EC50” value was 2.57 µg/mL. In experiment [2], the “huEGFR+ mcl-1-/- MEF EC50” value is 0.035 µM.

B5: AbG-WD (antibody, human IgG1, kappa, V domains shown)
VH: EVQLQESGPGLVKPSQTLSLTCTVSGYSISNDFAWNWIRQLPGKGLEWMGYISYKGNTRYQPSLKSRITISRDTSKNQFFLKLNSVTAADTATYYCVTASRGLPYWGQGTLVTVSS
VL: DIQMTQSPSSMSVSVGDRVTITCHSSQDITYNIGWLQQKPGKSFKGLIYHGANLDDGVPSRFSGSGSGTDYTLTISSLQPEDFATYYCVQYDEFPWTFGGGTKLEIKR
modifications: synthon WD on reduced interchain cysteines; average DAR 3.4 per ADC
On to B5, for which, in experiment [1], the “H1650 CTG-3D EC50” value is 2.03 µg/mL and the “H1650 GFP Flourescence EC50” value was found to be 0.36 µg/mL. The “huEGFR+ mcl-1-/- MEF EC50” value in experiment [2] is 0.0058 µM.

B6: AbB-LB (antibody, human IgG1, kappa, V domains shown)
VH: EVQLQESGPGLVKPSQTLSLTCTVSGYSISNDFAWNWIRQPPGKGLEWMGYISYKGNTRYQPSLKSRITISRDTSKNQFFLKLNSVTAADTATYYCVTASRGFPWWGQGTLVTVSS
VL: DIQMTQSPSSMSVSVGDRVTITCHSSQDINSNIGWLQQKPGKSFKGLIYHGTNLDDGVPSRFSGSGSGTDYTLTISSLQPEDFATYYCVQYAQFPWTFGGGTKLEIKR
modifications: synthon LB on reduced interchain cysteines; average DAR 1.8 per ADC
As for B6, in experiment [1], the “H1650 CTG-3D EC50” value amounted to 1.07 µg/mL and the “H1650 GFP Flourescence EC50” value was 2.38 µg/mL. For the same molecule, in experiment [2], the “huEGFR+ mcl-1-/- MEF EC50” value was found to be 0.031 µM.

B7: AbK-LB (antibody, human IgG1, kappa, V domains shown)
VH: EVQLQESGPGLVKPSQTLSLTCTVSGYSISRDFAWNWIRQPPGKGLEWMGYISYNGNTRYQPSLKSRITISRDTSKNQFFLKLNSVTAADTATYYCVTASRGFPWWGQGTLVTVSS
VL: DIQMTQSPSSMSVSVGDRVTITCHSSQDITYNVGWLQQKPGKSFKGLIYHGSNLDHGVPSRFSGSGSGTDYTLTISSLQPEDFATYYCVQYDDFPWTFGGGTKLEIKR
modifications: synthon LB on reduced interchain cysteines; average DAR 1.8 per ADC
In the case of B7, in experiment [1], the “H1650 CTG-3D EC50” value was determined as 1.23 µg/mL and the “H1650 GFP Flourescence EC50” value was found to be 1.33 µg/mL. Moreover, in experiment [2], the “huEGFR+ mcl-1-/- MEF EC50” value is 0.017 µM.

B8: AbA-ZZ (antibody, human IgG1, kappa, V domains shown)
VH: EVQLQESGPGLVKPSQTLSLTCTVSGYSISRDFAWNWIRQPPGKGLEWMGYISYNGNTRYQPSLKSRITISRDTSKNQFFLKLNSVTAADTATYYCVTASRGFPYWGQGTLVTVSS
VL: DIQMTQSPSSMSVSVGDRVTITCHSSQDINSNIGWLQQKPGKSFKGLIYHGTNLDDGVPSRFSGSGSGTDYTLTISSLQPEDFATYYCVQYAQFPWTFGGGTKLEIKR
modifications: synthon ZZ on reduced interchain cysteines; average DAR 1.3 per ADC
For B8, in experiment [1], the “H1650 CTG-3D EC50” value was 1.86 µg/mL and the “H1650 GFP Flourescence EC50” value worked out at 1.18 µg/mL. Further, the “huEGFR+ mcl-1-/- MEF EC50” value in experiment [2] is 0.186 µM.

The values are drawn from patent US20240199745A1, “ANTI-EGFR ANTIBODY DRUG CONJUGATES” (priority 2016, published 2024).
